According to patent US20130045267A1, “METHODS OF USING AGENTS THAT MODULATE CLAUDIN EXPRESSION” (priority 2010, published 2013):

What was measured:
[1] = tested on: primary human keratinocytes (PHK); experiment: Trans Epithelial Electric Resistance (TEER) in PHK monolayers; format: cell-based
Method: PHK were plated at a subconfluent density of 2.5−3×10^4 cells/filter in Transwell insert and cultured in Keratinocyte-SFM media until confluent. TEER was measured using an EVOMX voltohmmeter (World Precision Instruments, Sarasota, Fla.). The resistance of cell-free filters was subtracted from each experimental value.
(§1) PHK were plated on glass coverslips at 2-3×10^5 cells/well in a 6-well plate or at 2-3×10^4 cells/filter in Transwell insert (Costar; PET membrane, 0.4 μm pore size, 6.5 mm insert) in Keratinocyte-SFM without antibiotics. The next day after plating, cells were transfected with claudin-1 specific or control (scrambled) siRNAs (Santa Cruz) using Lipofectamine™ 2000 transfection Reagent (Invitrogen). TEER and permeability experiments were conducted 48 hours after PHK were switched to differentiation media.
TEER was measured in PHK as described above. PHK were stimulated with S. aureus-derived peptidoglycan (PGN, 0.2-20 μg/ml, n=3-7) (FIG. 19A), Malp-2 (10-1000 ng/ml, n=3) (FIG. 19B), and Pam3CSK4 a TLR1/2 ligand (0.01-20 μg/ml, n=3-6) (FIG. 19C). Data are presented by analyzing the area under the TEER curve and normalized to the mean values for the control group (media alone)*p<0.05; **p<0.01.

claudin-1 = experiment: Western blot of claudin-1 protein in primary human keratinocytes; format: cell-based; conditions: PHK
Method: Human keratinocytes were isolated from neonatal foreskin. Poumay et al., “Basal Detachment of the Epidermis Using Dispase: Tissue Spatial Organization and Fate of Integrin Alpha 6 Beta 4 and Hemidesmosomes,” J. Invest. Dermatol. 102:111-7 (1994), which is hereby incorporated by reference in its entirety. PHK were cultured in Keratinocyte-SFM (Invitrogen/Gibco) with 1% Pen/Strep, 0.2% Amphotericin B (Invitrogen/Gibco). To differentiate PHK, cells were grown in DMEM (Invitrogen/Gibco) with 10% heat-inactivated fetal bovine serum (Invitrogen/Gibco) and 1% Pen/Strep, 0.2% Amphotericin B (Invitrogen/Gibco). For TJ modulation experiments, the following cytokines were added alone or in combination to the differentiation media; human IL-4 (50 ng/ml; R&D system) and IL-13 (50 ng/ml; R&D system).
PHK were lysed on ice in RIPA lysis buffer (20 mM Tris, 50 mM NaCl, 2 mM EDTA, 2 mM EGTA, 1% sodium deoxycholate, 1% TX-100, and 2% SDS, pH 7.4), with 1:100 Protease Inhibitor Cocktail (Sigma), 1:100 Phosphatase Inhibitor Cocktail ([…] for 30 min at 4° C. The samples were heated at 95° C. for 10 min and then centrifuged at 14,000 rpm for 15 min. Forty μg of protein, determined by BCA (Pierce) in NuPage LDS Sample Buffer (Invitrogen) was applied to 4-12% NuPage Bis-Tris gels (Invitrogen). Electrophoresis was performed under reducing conditions with MES SDS Buffer (Invitrogen). Membranes were incubated in blotting solution (5% non-fat dry milk in PBS+0.05% Tween 20) at RT for 1 h and then incubated with primary antibodies; claudin-1 (JAY.8; Zymed), occludin (OC/3F10; Zymed) and GAPDH (FL-355; Santa Cruz). An HRP-linked secondary antibody (GE Healthcare) was used with ECL (GE Healthcare) to visualize bands by autoradiography with Kodak BioMax MR film. The pixel intensity of each band was estimated with Image J.
as §1

claudin-1 transcripts = experiment: qPCR of claudin-1 transcripts after siRNA transfection of PHK; format: cell-based, human; conditions: siRNA 100 nM
Method: QPCR was performed using the iScript™ cDNA Synthesis kit and iQ™ SYBER Green Supermix assay system (Bio-Rad Laboratories). All PCR amplifications were carried out in triplicate on an iQ5 Multicolor real-time PCR detection system (Bio-Rad). Primers were designed and synthesized by Integrated DNA Technologies (Table 1). Relative gene expression was calculated by using the 2^−ΔΔCt method. Livak and Schmittgen, “Analysis of Relative Gene Expression Data Using Real-Time Quantitative PCR and the 2(−Delta Delta C(T)) Method,” Methods 25:402-8 (2001), which is hereby incoporated by reference in its entirety. The normalized Ct value of each sample was calculated using GAPDH as an endogenous control gene.
as §1
siRNA approach was used to selectively downregulate claudin-1 in primary human keratinocytes (PHK). […] There was no effect on mRNA expression of occludin, ZO-1, nectin-1, E-cadherin or filaggrin (n=5/group). Relative gene expressions were calculated by using the 2^−ΔΔCt method, in which Ct indicates cycle threshold, the fractional cycle number where the fluorescent signal reaches detection threshold. The normalized Ct value of each sample was calculated using GAPDH as endogenous control gene. The specific sequence information for the claudin-1 siRNA (h) is detailed below. (This siRNA is a pool of 3 separate strands.)

B1: CLDN1 siRNA: claudin-1 specific siRNA (Santa Cruz), a pool of 3 separate strands, SEQ ID NO: 10-15 (nucleic acid)
chain 1: UACAUAGGCAUAGUUCAUGNN
chain 2: CAUGAACUAUGCCUAUGUANN
chain 3: AACGUAUGCAGUUAAUUCCNN
chain 4: GGAAUUAACUGCAUACGUUNN
chain 5: UGAAGAUCUAUGUAUGUGGNN
chain 6: CCACAUACAUAGAUCUUCANN
modifications: chemistry not given here
reduction in TJ function (electrical resistance and permeability assays) ([1]; claudin-1 siRNA, PHK): ~50%
TEER ([1]; siRNA 100 nM, 48 hours after switch to differentiation media, n=4): 80.6±6.4 ohms×cm^2
drop in TEER ([1]; siRNA 100 nM, vs scrambled siRNA): > 50%
claudin-1 protein by Western blot (claudin-1; CLDN1 siRNA, 48 h): dose-dependent reduction
decrease in claudin-1 protein expression compared to scrambled siRNA-transfected cells (claudin-1; dose-dependent): ≤ 60%
reduction in claudin-1 transcripts compared to control transfected cells (claudin-1 transcripts): 50%
claudin-1 transcripts (MEAN±SEM) (claudin-1 transcripts; n=5/group): 5.42±0.8 RVU
claudin-1 transcripts relative to control transfected cells (claudin-1 transcripts; n=5/group): 0.5 fold
claudin-1 transcripts relative to control transfected cells (claudin-1 transcripts; n=5/group, listed as Cldn1 siRNA): 0.5%±0.06 fold
